Data reported in patent US20220242973A1 (Molecular Partners, published 2022).
Where a chain is given by its changes, count along the chain named.

T1: Human FAP expressed on the cell surface (WI38, CHO-FAP1.9, U87MG cells) (human, UniProt Q12884 1-760)
T1 construct: whole, on cells; Endogenous on WI38 and U87MG cells; from a human FAP cDNA (OriGene) in CHO-FAP1.9 cells; also called hFAP; FAP+ cells
T1 sequence (looked up): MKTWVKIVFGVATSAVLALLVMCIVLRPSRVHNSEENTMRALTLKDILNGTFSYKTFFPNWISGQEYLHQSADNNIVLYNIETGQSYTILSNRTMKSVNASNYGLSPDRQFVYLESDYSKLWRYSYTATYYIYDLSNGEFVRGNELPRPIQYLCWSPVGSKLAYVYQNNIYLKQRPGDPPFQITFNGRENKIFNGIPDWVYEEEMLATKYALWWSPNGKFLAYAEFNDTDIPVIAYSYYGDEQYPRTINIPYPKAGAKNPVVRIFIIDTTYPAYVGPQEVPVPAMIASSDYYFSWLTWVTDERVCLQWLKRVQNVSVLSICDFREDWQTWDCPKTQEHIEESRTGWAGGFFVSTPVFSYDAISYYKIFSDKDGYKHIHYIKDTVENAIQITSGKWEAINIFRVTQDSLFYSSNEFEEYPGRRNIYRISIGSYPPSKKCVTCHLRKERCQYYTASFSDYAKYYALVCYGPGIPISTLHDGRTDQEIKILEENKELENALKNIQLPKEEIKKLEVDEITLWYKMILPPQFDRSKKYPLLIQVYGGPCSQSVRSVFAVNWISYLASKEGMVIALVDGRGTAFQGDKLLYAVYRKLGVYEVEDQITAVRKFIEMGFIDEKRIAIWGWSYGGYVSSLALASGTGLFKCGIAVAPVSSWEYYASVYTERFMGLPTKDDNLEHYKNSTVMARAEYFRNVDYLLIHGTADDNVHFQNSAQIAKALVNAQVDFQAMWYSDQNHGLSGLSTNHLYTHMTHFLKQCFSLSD

T2: Recombinant human FAP (fibroblast activation protein) (human, UniProt Q12884 26-760)
T2 sequence (looked up): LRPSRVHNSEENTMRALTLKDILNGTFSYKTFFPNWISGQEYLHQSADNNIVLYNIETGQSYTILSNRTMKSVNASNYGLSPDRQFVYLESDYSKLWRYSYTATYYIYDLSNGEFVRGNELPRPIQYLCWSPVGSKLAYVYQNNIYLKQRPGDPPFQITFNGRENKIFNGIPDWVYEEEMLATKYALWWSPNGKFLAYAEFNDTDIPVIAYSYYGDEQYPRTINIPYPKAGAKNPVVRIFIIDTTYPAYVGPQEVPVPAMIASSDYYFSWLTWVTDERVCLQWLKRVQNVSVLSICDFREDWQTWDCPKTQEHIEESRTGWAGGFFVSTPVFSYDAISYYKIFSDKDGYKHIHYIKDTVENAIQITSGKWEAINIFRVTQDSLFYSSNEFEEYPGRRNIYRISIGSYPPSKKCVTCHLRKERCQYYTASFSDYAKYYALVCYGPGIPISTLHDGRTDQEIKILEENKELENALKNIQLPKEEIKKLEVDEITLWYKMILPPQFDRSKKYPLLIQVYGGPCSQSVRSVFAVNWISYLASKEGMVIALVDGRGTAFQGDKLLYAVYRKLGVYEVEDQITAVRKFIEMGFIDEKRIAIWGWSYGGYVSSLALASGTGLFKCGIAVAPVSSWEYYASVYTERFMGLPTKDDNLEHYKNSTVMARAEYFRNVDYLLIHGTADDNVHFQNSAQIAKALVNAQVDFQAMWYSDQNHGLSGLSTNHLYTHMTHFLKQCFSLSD

B1: DARPin® protein #34 (designed binder)
chain: MRGSHHHHHHGSDLGKKLLEAARAGQDDEVRELLKAGADVNAKDVLGWTPLHLAAFEGHLEIVEVLLKAGADVNAKDKKGWTPLQLAARTGHLEIVEVLLKAGADVNAKDHIGATPLHLAAWQGHPEIVEVLLKAGADVNAQDKSGKTPADLAADAGHEDIAEVLQKAA
B2: DARPin® protein #36 (designed binder)
chain: B1 chain with E32I, K35A, A168L, A169N
B3: DARPin® protein #35 (designed binder)
chain: MRGSHHHHHHGSDLGEKLLVAALYGQDDEVRELLKAGADVNAKDQWGLTPLHKAALQGHLEIVEVLLKAGADVNAKDERGHTPLHWAARFGHLEIVEVLLKAGADVNAQDQKGYTPADLAALWGHEDIAEVLQKAA
B4: DARPin® protein #37 (designed binder)
chain: B3 chain with E32I, K35A, A135L, A136N
B5: DARPin® protein #38 (designed binder)
chain: MRGSHHHHHHGSDLGKKLLEAARAGQDDEVRELLKAGADVNAKDEVGRTPLHLAAQIGHLEIVEVLLKAGADVNAKNRWGVTPLHVAAWVGHLEIVEVLLKAGADVNAKDQQGATPLHLAAIRGHLEIVEVLLKAGADVNAQDKSGKTPADLAADAGHEDIAEVLQKLN
B6: DARPin® protein #39 (designed binder)
chain: MRGSHHHHHHGSDLGKKLLEAARAGQDDEVRELLKAGADVNAKDEWGKTPLHLAAIRGHLEIVEVLLKAGADVNAKDTHGITPLHLAAFVGHLEIVEVLLKAGADVNAKDYLGRTPLHIAAAKGHLEIVEVLLKAGADVNAQDKSGKTPADLAADAGHEDIVEVLQKLN

How the values were obtained:
[1] = target: T1, Human FAP expressed on the cell surface …; assay: FACS on WI38 cells
Protocol: Using multi-well plates, 20,000 WI38 cells were added per well in 50 μl of PBS. 50 μl of appropriate dilutions (2× dilution steps) of ankyrin repeat protein was then added to the cells and incubated for 30 minutes on ice. After the ankyrin repeat protein-binding reaction, cells were washed twice with PBS. Direct immunofluorescent detection of the His-tagged ankyrin repeat proteins using Penta-His AF647 conjugate (QIAgen) and determination of live cells using LIVE/DEAD™ Fixable Green Dead Cell Stain Kit (ThermoFisher) were then performed together in one step. The Penta-His AF647 conjugate and the LIVE/DEAD™ Fixable Green dye were applied to the cells together in 1/200 (Penta-His) and 1/1000 (LID Fixable) final dilutions and incubated for 20-30 minutes on ice. After washing the cells with PBS, cells were re-suspended in 1× CellFix™ buffer (BD Biosciences) (10× stock was diluted 1/10 in water). […] Acquisition and FACS analysis, including the determination of median fluorescence intensity (MFI), were done within 5 days after staining using an AttuneNxT instrument. […]
Similarly, binding of the engineered ankyrin repeat proteins, i.e. DARPin® protein #34 and DARPin® protein #35, to FAP-expressing WI38 cells was also tested essentially as described above. Fold increase MFI was calculated by dividing the sample MFI by the MFI of the background control. […]

[2] = target: T2, Recombinant human FAP (fibroblast …); assay: cell-based or functional assay
[3] = target: T1, Human FAP expressed on the cell surface …; assay: FACS on CHO-FAP1.9 cells (human FAP transfectants)
[4] = target: T1, Human FAP expressed on the cell surface …; assay: FACS on FAP-expressing WI38 cells, Penta-His AF647 detection
Summary of the method: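 WI38 cells (20,000/well) incubated 30 min on ice with 2-fold dilutions of His-tagged ankyrin repeat proteins, washed, stained with Penta-His AF647 plus live/dead dye, fixed. Median fluorescence by flow cytometry; EC50 from non-linear regression of binding curves.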

| Binder | EC50 [1] | FAP activity (%) [2] | EC50 [3] | EC50 [4] |
| --- | --- | --- | --- | --- |
| B1 | 0.736 nM | 93% | 1.19 nM | – |
| B2 | – | – | – | 0.235 nM |
| B3 | 0.994 nM | 90% | 2.02 nM | – |
| B4 | – | – | – | 0.118 nM |
| B5 | – | – | – | 0.106 nM |
| B6 | – | – | – | 0.203 nM |
